For assay [1], the target named is IP-10 (human, UniProt P02778). The assay can be described thus: ELISA. (ELISA stands for enzyme-linked immunosorbent assay.)
In assay [2] the target is GRO-beta (human, UniProt P19875). The experiment in a line: ELISA.
Assay [3] addresses T1, IL-8 (human, UniProt P10145). The assay can be described thus: SPR, 37C, bivalent. On the technique in general: Surface plasmon resonance follows binding to a sensor surface in real time, without labels.
The target in assay [4] is GRO-alpha (human, UniProt P09341). The experiment in a line: ELISA.
Chain of GRO-alpha (P09341 35-107): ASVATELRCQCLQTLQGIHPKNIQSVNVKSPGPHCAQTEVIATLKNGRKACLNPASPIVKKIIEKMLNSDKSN
In assay [5] the target is T1, IL-8. The experiment in a line: SPR, 25C, bivalent.
Assay [6] addresses T1, IL-8. The assay can be described thus: SPR, 25C.
The target in assay [7] is T1, IL-8. The assay can be described thus: SPR, 37C.

T1 sequence (P10145 28-99): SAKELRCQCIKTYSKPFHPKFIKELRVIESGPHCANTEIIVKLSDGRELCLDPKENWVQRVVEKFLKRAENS
Chain of GRO-beta (P19875 35-107): as the sequence (P09341 35-107) above, with S2P, V3L, P20L, N27K, R48Q, I58M, N68K, S69N, D70G counted along it
Chain of IP-10 (P02778 22-98): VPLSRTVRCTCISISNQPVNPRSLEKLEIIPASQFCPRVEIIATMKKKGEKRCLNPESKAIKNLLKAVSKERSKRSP

B1: 10F8 IgG1,kappa (antibody, V domains shown)
VH: QVQLVESGGGVVQPGRSLRLSCTASGFTFSHYGMYWVRQAPGKGLEWVAVIWYDGSYEYNADSVKGRFTISRDNSKNTLYLQMNSLRAEDTAVYYCARDRVGLFDYWGQGTLVTVSS
VL: EIVLTQSPGTLSLSPGERATLSCRASQSISSSYLAWYQQKPGQAPRLLIYGPSSRATGIPDRFSGSGSGTDFTLTISRLEPEDFAVYYCQQYAGSLTFGPGTKVDIK
In the case of B1, the binding result in assay [1], in assay [2] and in assay [4] was “no binding” in each case. Besides, the values for the Kd in assay [3] and in assay [5] were 0.02 nM and 0.01 nM, respectively.

B2: 10F8 Fab (antibody, V domains shown)
VH: B1 VH
VL: B1 VL
As to B2, the Kd in assay [6] came to 0.194 nM; in assay [7], 0.372 nM.

(Values after US20190248883 (published 2019).)
